In publication PMC9241633:

Tested on: KbvR (Klebsiella pneumoniae)
Experiment: MST
Settings: MST: constant labeled KbvR, 2-fold DNA dilution series (16 samples), 30 min incubation at room temperature, measured at 30 C, 80% excitation power, medium LED …

Substance: ompK36 promoter region
- Kd: 450 nM
